Measured values: the supplement of paper PMC10567573

B1: FUT8 (parent)
chain: YAHQPRTADEIPMEPGDIIGVAGN

Variants of: B1
Test: protein stability index of a GFP-peptide fusion (GPS, HEK-293T) (PSI 1-6); higher = more stable
Settings: c terminus: a fixed tail appended
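Also: lentivirally expressed fusions sorted by FACS into six bins by GFP to DsRed ratio, PSI derived from sequencing read proportions per bin multiplied by bin number.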

Variant	protein stability index
YAHQPRTADENPMEPGDIIGVAGN [I11N]	4.26
YAHQPRTADEDPMEPGDIIGVAGN [I11D]	4.65
YAHQPRTADESPMEPGDIIGVAGN [I11S]	4.09
YAHQPRTADEWPMEPGDIIGVAGN [I11W]	3.44
YAHQPRTADELPMEPGDIIGVAGN [I11L]	3.47
YAHQPRTADEFPMEPGDIIGVAGN [I11F]	3.71
YAHQDRTADEIPMEPGDIIGVAGN [P5D]	4.93
YAHQTRTADEIPMEPGDIIGVAGN [P5T]	4.31
YAHQERTADEIPMEPGDIIGVAGN [P5E]	4.62
YAHQHRTADEIPMEPGDIIGVAGN [P5H]	3.85
YAHQNRTADEIPMEPGDIIGVAGN [P5N]	4.33
YAHQQRTADEIPMEPGDIIGVAGN [P5Q]	4.12
YAHQIRTADEIPMEPGDIIGVAGN [P5I]	3.4
YAHQSRTADEIPMEPGDIIGVAGN [P5S]	3.85
YAHQPRTADEIPMEPGDIIRVAGN [G20R]	3.56
YAHQPRTADEIPMEPGDIIIVAGN [G20I]	3.26
YAHQPRTADEIPMEPGDIIQVAGN [G20Q]	4.06
YAHQPRTADEIPMEPGDIIHVAGN [G20H]	4.17
YAHQPRTADEIPMEPGDIIPVAGN [G20P]	4.47
YAHQPRTADEIPMHPGDIIGVAGN [E14H]	3.5
YAHQPRTADEIPMFPGDIIGVAGN [E14F]	2.46
YAHQPRTADEIPMIPGDIIGVAGN [E14I]	3.23
YAHQPRTADEIPMSPGDIIGVAGN [E14S]	3.29
YAHQPRTADEIPMAPGDIIGVAGN [E14A]	3.41

Variant	protein stability index
YAHQPRTADEIPMLPGDIIGVAGN [E14L]	2.88
YAHQPRTADEIPMVPGDIIGVAGN [E14V]	3.58
YAHQPRTADEIPMGPGDIIGVAGN [E14G]	3.35
YAHQPRTADEIPMEPGDIIGVADN [G23D]	4.24
YAHQPRTADEIPMEPGDIIGVAFN [G23F]	2.99
YAHQPRTADEIPMEPGDIIGVAMN [G23M]	3.7
YAHQPRTADEIPMEPGDIIGVACN [G23C]	3.12
YAHQPRTADEIPMEPGDIIGVAQN [G23Q]	4.11
YAHQPRTADEIPMEPGDIIGVAAN [G23A]	3.96
YAHQPRTADEIPMEPGDIIGVAKN [G23K]	4.19
YAHQPRTADEIPMEPGDIIGVANN [G23N]	3.63
YAHQPRTADEIPMEPGDIIGVARN [G23R]	3.31
YAHGPRTADEIPMEPGDIIGVAGN [Q4G]	3.52
YAHCPRTADEIPMEPGDIIGVAGN [Q4C]	3.81
YAHTPRTADEIPMEPGDIIGVAGN [Q4T]	3.72
YAHEPRTADEIPMEPGDIIGVAGN [Q4E]	4.61
YAHDPRTADEIPMEPGDIIGVAGN [Q4D]	4.36
YAHYPRTADEIPMEPGDIIGVAGN [Q4Y]	3.66
YAHKPRTADEIPMEPGDIIGVAGN [Q4K]	2.85
YAHNPRTADEIPMEPGDIIGVAGN [Q4N]	4.07
YAHMPRTADEIPMEPGDIIGVAGN [Q4M]	3.73
YAHIPRTADEIPMEPGDIIGVAGN [Q4I]	3.54
YAHFPRTADEIPMEPGDIIGVAGN [Q4F]	2.77
YAHQPRTAQEIPMEPGDIIGVAGN [D9Q]	3.74

Variant	protein stability index
YAHQPRTALEIPMEPGDIIGVAGN [D9L]	3.1
YAHQPRTAHEIPMEPGDIIGVAGN [D9H]	3.67
YAHQPRTATEIPMEPGDIIGVAGN [D9T]	3.57
YAHQPRTAFEIPMEPGDIIGVAGN [D9F]	2.68
YAHQPRTAYEIPMEPGDIIGVAGN [D9Y]	2.62
YAHQPRTANEIPMEPGDIIGVAGN [D9N]	3.65
YAHQPRTACEIPMEPGDIIGVAGN [D9C]	3.22
YAHQPRTADEIPMEPMDIIGVAGN [G16M]	3.54
YAHQPRTADEIPMEPVDIIGVAGN [G16V]	3.92
YAHQPRTADEIPMEPPDIIGVAGN [G16P]	4.1
YAHQPRTADEIPMEPEDIIGVAGN [G16E]	4.26
YAHQPRTADEIPMEPKDIIGVAGN [G16K]	3.75
YAHQPRTADEIPMEPYDIIGVAGN [G16Y]	3.05
YAHQPRTADNIPMEPGDIIGVAGN [E10N]	3.73
YAHQPRTADWIPMEPGDIIGVAGN [E10W]	2.23
YAHQPRTADFIPMEPGDIIGVAGN [E10F]	3.14
YAHQPRTADKIPMEPGDIIGVAGN [E10K]	2.9
YAHQPRTADPIPMEPGDIIGVAGN [E10P]	3.66
YAHQPRTADEIWMEPGDIIGVAGN [P12W]	2.4
YAHQPRTADEIYMEPGDIIGVAGN [P12Y]	3.21
YAHQPRTADEIKMEPGDIIGVAGN [P12K]	3.96
YAHQPRTADEIFMEPGDIIGVAGN [P12F]	3.27
YAHQPRTADEIEMEPGDIIGVAGN [P12E]	4.2
YAHQPRTADEICMEPGDIIGVAGN [P12C]	3.48

Variant	protein stability index
YAHQPRTADEIQMEPGDIIGVAGN [P12Q]	4.47
YAHQPRTADEIPMEPGDMIGVAGN [I18M]	4.21
YAHQPRTADEIPMEPGDGIGVAGN [I18G]	3.84
YAHQPRTADEIPMEPGDYIGVAGN [I18Y]	3.63
YAHQPRTADEIPMEPGDVIGVAGN [I18V]	4.47
YAHQPRTADEIPMEPGDWIGVAGN [I18W]	3.11
YAHQPRTADEIPMEPGDLIGVAGN [I18L]	4.05
YAHQPRTADEIPMEPGDFIGVAGN [I18F]	3.55
YAHQPRTADEIPMEPGDSIGVAGN [I18S]	3.79
YAHQPCTADEIPMEPGDIIGVAGN [R6C]	4.05
YAHQPGTADEIPMEPGDIIGVAGN [R6G]	4.65
YAHQPQTADEIPMEPGDIIGVAGN [R6Q]	4.47
YAHQPITADEIPMEPGDIIGVAGN [R6I]	4.12
YAHQPKTADEIPMEPGDIIGVAGN [R6K]	3.99
YAHQPLTADEIPMEPGDIIGVAGN [R6L]	4.2
YAHQPNTADEIPMEPGDIIGVAGN [R6N]	4.33
YAHQPSTADEIPMEPGDIIGVAGN [R6S]	4.46
YAHQPETADEIPMEPGDIIGVAGN [R6E]	5.23
YAHQPVTADEIPMEPGDIIGVAGN [R6V]	4.44
YAHQPRTADEIPMEPGDIAGVAGN [I19A]	4.67
YAHQPRTADEIPMEPGDIQGVAGN [I19Q]	4.25
YAHQPRTADEIPMEPGDIHGVAGN [I19H]	4.02
YAHQPRTADEIPMEPGDIGGVAGN [I19G]	4.34
YAHQPRTADEIPMEPGDILGVAGN [I19L]	3.65

Variant	protein stability index
YAHQPRTADEIPMEPGDICGVAGN [I19C]	4.22
YAHQPRTADEIPMEPGDIWGVAGN [I19W]	1.93
YAHQPRTADEIPMEPGDITGVAGN [I19T]	4.16
YAHQPRTADEIPMEPGDIVGVAGN [I19V]	4.17
YAHQPRTADEIPMEPGDINGVAGN [I19N]	4.72
YAHQPRTADEIPMEPGDIMGVAGN [I19M]	4.54
YAHQPRTADEIPMEPGDIIGVAGG [N24G]	3.43
YAHQPRTADEIPMEPGDIIGVAGL [N24L]	2.77
YAHQPRTADEIPMEPGDIIGVAGK [N24K]	3.62
YAHQPRTADEIPMEPGDIIGVAGW [N24W]	2.66
YAHQPRTADEIPMEPGDIIGVAGT [N24T]	4.13
YAHQPRTADEIPMEPGDIIGVAGY [N24Y]	3.21
YAHQPRTADEIPMEPGDIIGVAGP [N24P]	3.18
YAHQPRTADEIPMEPGDIIGVAGM [N24M]	3.21
YAHQPRTADEIPMEPGDIIGVAGC [N24C]	3.57
YAHQPRTADEIPMEPGDIIGVAGI [N24I]	2.93
YAHQPRTADEIPMEPGDIIGVAGD [N24D]	4.71
YAHQPRTADEIPMEPGDIIGVAGQ [N24Q]	4.03
YALQPRTADEIPMEPGDIIGVAGN [H3L]	4.77
YATQPRTADEIPMEPGDIIGVAGN [H3T]	4.25
YAIQPRTADEIPMEPGDIIGVAGN [H3I]	4.2
YAMQPRTADEIPMEPGDIIGVAGN [H3M]	3.99
YAAQPRTADEIPMEPGDIIGVAGN [H3A]	4.56
YANQPRTADEIPMEPGDIIGVAGN [H3N]	4.43

Variant	protein stability index
YAEQPRTADEIPMEPGDIIGVAGN [H3E]	4.87
YAKQPRTADEIPMEPGDIIGVAGN [H3K]	4.34
LAHQPRTADEIPMEPGDIIGVAGN [Y1L]	4.75
AAHQPRTADEIPMEPGDIIGVAGN [Y1A]	5.22
IAHQPRTADEIPMEPGDIIGVAGN [Y1I]	5.16
EAHQPRTADEIPMEPGDIIGVAGN [Y1E]	4.92
SAHQPRTADEIPMEPGDIIGVAGN [Y1S]	4.88
CAHQPRTADEIPMEPGDIIGVAGN [Y1C]	3.93
YLHQPRTADEIPMEPGDIIGVAGN [A2L]	4.67
YKHQPRTADEIPMEPGDIIGVAGN [A2K]	4.51
YIHQPRTADEIPMEPGDIIGVAGN [A2I]	3.15
YSHQPRTADEIPMEPGDIIGVAGN [A2S]	4.53
YHHQPRTADEIPMEPGDIIGVAGN [A2H]	3.59
YEHQPRTADEIPMEPGDIIGVAGN [A2E]	5.05
YYHQPRTADEIPMEPGDIIGVAGN [A2Y]	4.3
YMHQPRTADEIPMEPGDIIGVAGN [A2M]	4.38
YVHQPRTADEIPMEPGDIIGVAGN [A2V]	2.39
YAHQPRMADEIPMEPGDIIGVAGN [T7M]	3.68
YAHQPRFADEIPMEPGDIIGVAGN [T7F]	2.37
YAHQPRKADEIPMEPGDIIGVAGN [T7K]	3.56
YAHQPRIADEIPMEPGDIIGVAGN [T7I]	3.66
YAHQPRDADEIPMEPGDIIGVAGN [T7D]	4.62
YAHQPRRADEIPMEPGDIIGVAGN [T7R]	3.9
YAHQPRQADEIPMEPGDIIGVAGN [T7Q]	4.25

Variant	protein stability index
YAHQPRAADEIPMEPGDIIGVAGN [T7A]	4.18
YAHQPRTADEIPIEPGDIIGVAGN [M13I]	3.87
YAHQPRTADEIPDEPGDIIGVAGN [M13D]	4.82
YAHQPRTADEIPLEPGDIIGVAGN [M13L]	4.1
YAHQPRTADEIPREPGDIIGVAGN [M13R]	4.43
YAHQPRTADEIPHEPGDIIGVAGN [M13H]	4.33
YAHQPRTDDEIPMEPGDIIGVAGN [A8D]	4.49
YAHQPRTQDEIPMEPGDIIGVAGN [A8Q]	4.25
YAHQPRTGDEIPMEPGDIIGVAGN [A8G]	4.19
YAHQPRTVDEIPMEPGDIIGVAGN [A8V]	3.77
YAHQPRTADEIPMEPGDIIGNAGN [V21N]	4.28
YAHQPRTADEIPMEPGDIIGKAGN [V21K]	3.99
YAHQPRTADEIPMEPGDIIGLAGN [V21L]	4.03
YAHQPRTADEIPMEPGDIIGDAGN [V21D]	4.62
YAHQPRTADEIPMEPGDIIGTAGN [V21T]	4.69
YAHQPRTADEIPMEHGDIIGVAGN [P15H]	3.86
YAHQPRTADEIPMEVGDIIGVAGN [P15V]	3.58
YAHQPRTADEIPMEWGDIIGVAGN [P15W]	2.2
YAHQPRTADEIPMEAGDIIGVAGN [P15A]	4.38
YAHQPRTADEIPMEFGDIIGVAGN [P15F]	3.52
YAHQPRTADEIPMETGDIIGVAGN [P15T]	4.25
YAHQPRTADEIPMECGDIIGVAGN [P15C]	3.58
YAHQPRTADEIPMEMGDIIGVAGN [P15M]	3.68
YAHQPRTADEIPMEGGDIIGVAGN [P15G]	4.16

Variant	protein stability index
YAHQPRTADEIPMEPGDIIGVDGN [A22D]	4.19
YAHQPRTADEIPMEPGDIIGVKGN [A22K]	4.4
YAHQPRTADEIPMEPGDIIGVMGN [A22M]	3.96
YAHQPRTADEIPMEPGDIIGVTGN [A22T]	3.87
YAHQPRTADEIPMEPGDIIGVGGN [A22G]	4.01
YAHQPRTADEIPMEPGDIIGVPGN [A22P]	4.06
YAHQPRTADEIPMEPGDIIGVFGN [A22F]	2.85
YAHQPRTADEIPMEPGDIIGVVGN [A22V]	3.26
YAHQPRTADEIPMEPGDIIGVLGN [A22L]	3.63
YAHQPRTADEIPMEPGKIIGVAGN [D17K]	3.25
YAHQPRTADEIPMEPGYIIGVAGN [D17Y]	2.68
YAHQPRTADEIPMEPGAIIGVAGN [D17A]	3.23
YAHQPRTADEIPMEPGVIIGVAGN [D17V]	2.87
YAHQPRTADEIPMEPGHIIGVAGN [D17H]	3.29
YAHQPRTADEIPMEPGMIIGVAGN [D17M]	3.06
YAHQPRTADEIPMEPGFIIGVAGN [D17F]	2.03
YAHQPRTADEIPMEPGPIIGVAGN [D17P]	3.14
YAHQPRTADEIPMEPGWIIGVAGN [D17W]	1.41
YAHQPRTADEIPMEPGNIIGVAGN [D17N]	3.48
YAHQPRTADEIPMEPGSIIGVAGN [D17S]	3.78
